According to US12227570B2, “Anti-CEACAM6 antibodies and methods of use” (Singapore Health Services PTE LTD, priority 2016, dated 2025):

Experiments:
normal tissues = experiment: IHC staining on FFPE normal tissue microarray (MNO961)
Protocol: TMA slides containing FFPE tissues were first heated in an oven at 60° C. for 30 min to remove any solvents. The slides were then dewaxed and re-hydrated through sequential immersion in Histoclear (2×), 100% ethanol (2×), 95% ethanol, 70% ethanol, and finally in DI water.
Heat-induced epitope retrieval was done in a solution containing 10 mM Tris Base, 1 mM EDTA, 0.05% Tween 20 at pH 9.0, and heated at 95° C. for 20 min. The container with the antigen retrieval solution and slides was then removed and allowed to cool to room temperature for an additional 20 min. The slides were then washed in DI water. Endogenous peroxidase activity was then blocked by incubation of the slides with 3% H2O2 in PBS for 30 min at room temperature. The slides were washed in DI water, followed by a blocking step with 10% normal goat serum in PBS for 30 min.
The slides were then incubated with GR6A04 at 5 μg/mL in blocking solution overnight at 4° C. The slides were then washed an incubated with a polymer-based anti-mouse secondary antibody conjugated with HRP (DAKO, USA) for 30 min at room temperature, and developed with the recommended DAB chromogen substrate solution for 2 min, and counterstained with Gill's Hematoxylin solution.
The stained slides were subsequently dehydrated through immersion in 50% ethanol, 70% ethanol, 90% ethanol, 100% ethanol (2×) and Histoclear (2×), before mounting with a glass cover slip. The slides were then imaged with the Zeiss AxioScan Digital Slide Scanner.

A549−GR6A04+ cells = experiment: Subcutaneous xenograft model; type: in vivo, NCr Nude mice; conditions: 10 mg/kg, 3 doses on D0, D4 and D8, start at tumour size >150 mm3
Protocol: Xenograft models were established using A549−GR6A04+ cells in NCr Nude mice. 5E6 cells in DMEM basal media were mixed at a 1:1 ratio with Matrigel, and injected subcutaneously at a volume of 200 μl. Tumours were allowed to form and reach a size of >150 mm^3, before they were randomised into 5 groups of 5 mice each. The groups were treated with mAbs as follows: (1) Buffer control; (2) GR6A04-MMAE; (3) Hu-GR6A04; (4) GR6A04; (5) MG1.45-MMAE isotype control. mAbs were injected via tail vein injection at a total volume of 100 μl. Each dose, were applicable, is at 200 μg (equivalent to 10 mg/kg), and treatment was done every 4 days, for a total of 3 doses (Day 0, 4 and 8). Tumour size was monitored over 50 days.

B1: GR6A04: mouse IgG1, κ anti-CEACAM6 monoclonal antibody, VH SEQ ID NO:1, VL SEQ ID NO:2, binds N-glycosylated CEACAM6 (antibody, V domains shown)
VH: SGPELVKPGASVKMSCKASGNTFTSYVMHWVKQKPGQGLEWIGYINPYNDGTKYNEKFKGKATLTSDKSSSTAYMELSSLTSEDSAVYYCARSTARATPYFYAMDYWGQGTSVTVSS
VL: DILMTQSPSSLAVTAGEKVTMRCKSSQSLLWSVNQNSYLSWYQLKQGQPPKLLLYGASIRESWVPDRFTGSGSGTDFTLTISNVHVEDLAVYYCQHNHGSFLPYTFGGGTKLEIK
modifications: Isolated antibody fragment
- colon cores weakly positive (2+) (normal tissues; MNO961): 2 of 3
- normal tissue cores stained positive (normal tissues; MNO961): 3
- prostate cores weakly positive (2+) (normal tissues; MNO961): 1 of 3
- normal tissue cores with no staining (normal tissues; MNO961, 35 anatomical sites): 93 of the 96
- tumour growth versus buffer control (A549−GR6A04+ cells): slower growth compared to the buffer control
- tumour growth versus buffer control (A549−GR6A04+ cells; listed as Gr6A04): repression of tumour growth
